The target in the test is T1, refolded IL-7Rα ectodomain (human, UniProt P16871-1 21-239).
T1 construct: extracellular fragment of human IL-7Rα, NP_002176.2, residues 21-239; His tag removed with thrombin; also called IL-7Rα ectodomain (E. coli); not shown: His6, N-terminal, cleaved
T1 sequence (looked up): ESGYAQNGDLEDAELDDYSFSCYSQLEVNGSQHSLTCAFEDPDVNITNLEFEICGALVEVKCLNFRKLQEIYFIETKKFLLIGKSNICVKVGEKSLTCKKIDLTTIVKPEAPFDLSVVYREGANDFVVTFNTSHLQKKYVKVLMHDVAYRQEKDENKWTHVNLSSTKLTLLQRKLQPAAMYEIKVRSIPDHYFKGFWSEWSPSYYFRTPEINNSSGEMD
Kind of test: crystal structure; TSLP^Δ127–131:TSLPR^N47Q:IL-7Rα complex; 0.02 M citric acid, 0.08 M BIS-TRIS propane pH 8.8, 16% PEG 3,350, 293 K; 2.55 Å. The conditions noted are these: both partners purified.

B1: TSLPR^N47Q (domain or fragment, human, UniProt Q9HC73-1 23-221, looked up)
chain: QGGAAEGVQIQIIYFNLETVQVTWQASKYSRTNLTFHYRFNGDEAYDQCTNYLLQEGHTSGCLLDAEQRDDILYFSIRNGTHPVFTASRWMVYYLKPSSPKHVRFSWHQDAVTVTCSDLSYGDLLYEVQYRSPFDTEWQSKQENTCNVTIEGLDAEKCYSFWVRVKAMEDVYGPDTYPSDWSEVTCWQRGEIRDACAET
notes: signal peptide in the construct; extracellular fragment of human TSLPR, NP_071431.2, residues 1-221, N-glycosylation mutant N47Q; also called EndoH-treated TSLPR^N47Q
As to B1, the binding result was “binds”.

(Values after publication PMC5382266 (Nature Communications, 2017).)
